The source of these data is patent US20150125857A1.

For experiment [1], the target named is Frizzled (FZD) on the cell surface of pancreatic cancer cell lines. Nature of the experiment: flow cytometry, YAPC cells, RNF43 siRNA.
Experiment [2] shares this target. Nature of the experiment: flow cytometry, YAPC cells, pGL2 siRNA.
Experiment [3] shares this target. Put plainly: flow cytometry, YAPC cells stably expressing RNF43 deltaRING.
Experiment [4] shares this target. Put plainly: flow cytometry, YAPC cells transfected with pGL2 siRNA (control).
Experiment [5] shares this target. Put plainly: flow cytometry, YAPC cells stably expressing RNF43 F69C.
Experiment [6] shares this target. Nature of the experiment: flow cytometry, YAPC cells transfected with RNF43 siRNA#2, 18R5 + APC anti-human IgG.
The target is the same in experiment [7]. Nature of the experiment: flow cytometry, PaTu-8988S cells, pGL2 siRNA.
For experiment [8] the target is unchanged. Nature of the experiment: flow cytometry, YAPC cells transfected with RNF43 siRNA#1, 18R5 + APC anti-human IgG.
Experiment [9] shares this target. Put plainly: flow cytometry, HPAFII cells, pGL2 siRNA.
Experiment [10] shares this target. Put plainly: flow cytometry, YAPC cells treated with 3 uM IWP-2.
Experiment [11] has the same target. Put plainly: flow cytometry, YAPC cells transfected with pGL2 siRNA (control), 18R5 + APC anti-human IgG.
For experiment [12] the target is unchanged. Nature of the experiment: flow cytometry, Capan-2 cells, pGL2 siRNA.
The target is the same in experiment [13]. Put plainly: flow cytometry, YAPC cells treated with 1 uM LGK974.
Experiment [14] has the same target. Put plainly: flow cytometry, HPAFII cells, RNF43 siRNA.
Experiment [15] shares this target. Nature of the experiment: flow cytometry, PK1 cells, RNF43 siRNA.
Experiment [16] has the same target. Put plainly: flow cytometry, YAPC cells transfected with beta-catenin siRNA#1.
For experiment [17] the target is unchanged. Nature of the experiment: flow cytometry, YAPC cells transfected with beta-catenin siRNA#2.
Experiment [18] shares this target. Put plainly: flow cytometry, Capan-2 cells, RNF43 siRNA.
Experiment [19] has the same target. Nature of the experiment: flow cytometry, YAPC cells treated with DMSO.
For experiment [20] the target is unchanged. Put plainly: flow cytometry, PK1 cells, pGL2 siRNA.
For experiment [21] the target is unchanged. Nature of the experiment: flow cytometry, YAPC cells stably expressing empty vector (EV).
Experiment [22] has the same target. Nature of the experiment: flow cytometry, YAPC cells stably expressing wild-type RNF43.
For experiment [23] the target is unchanged. Put plainly: flow cytometry, PaTu-8988S cells, RNF43 siRNA.

B1: pan-Frizzled antibody 18R5 (antibody, INN chains, looked up, V domains shown)
VH: EVQLVESGGGLVQPGGSLRLSCAASGFTFSHYTLSWVRQAPGKGLEWVSVISGDGSYTYYADSVKGRFTISSDNSKNTLYLQMNSLRAEDTAVYYCARNFIKYVFANWGQGTLVTVSS
VL: DIELTQPPSVSVAPGQTARISCSGDNIGSFYVHWYQQKPGQAPVLVIYDKSNRPSGIPERFSGSNSGNTATLTISGTQAEDEADYYCQSYANTLSLVFGGGTKLTVL
In the case of B1, the Mean FZD intensity in FACS came to 1220 in experiment [1]; 353 in [2]; 293 in experiment [7]; 375 in experiment [9]; 2440 in experiment [12]; 402 in [14]. Moreover, the Mean FZD intensity in FACS turned out to be 923 in experiment [15], 2640 in [18], 473 in experiment [20] and 245 in [23]. The membrane Frizzled intensity in flow cytometry (RNF43 re-expression) is 2000 in experiment [3], 1500 in experiment [5], 1040 in [21] and 686 in [22]. In addition, the Median FZD intensity in FACS in experiment [4] stood at 137; in [6] it was 1750; in experiment [8] it was 1500; in experiment [10], 1750; in experiment [11], 237; in experiment [13], 1370. For the same molecule, the Median FZD intensity in FACS is 530 in [16], 561 in experiment [17] and 721 in experiment [19].
